Residue numbers refer to the chain shown, from its start.
Assays:
[1] = molecular target: T1, human CD20 expressed on Raji cells (CD3-, CD20+ human B-cell line) (human, UniProt P11836 1-297); experiment: cell-based or functional assay
T1 sequence: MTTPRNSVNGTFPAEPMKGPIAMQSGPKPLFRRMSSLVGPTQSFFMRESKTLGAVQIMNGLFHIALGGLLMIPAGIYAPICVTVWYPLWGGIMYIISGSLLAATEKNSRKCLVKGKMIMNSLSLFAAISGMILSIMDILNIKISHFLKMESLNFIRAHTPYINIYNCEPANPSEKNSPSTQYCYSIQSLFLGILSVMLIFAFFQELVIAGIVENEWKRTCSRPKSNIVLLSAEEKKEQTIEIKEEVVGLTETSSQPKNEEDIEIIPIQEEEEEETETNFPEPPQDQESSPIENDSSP

[2] = molecular target: T2, human CD3 expressed on cells (Jurkat, a CD3+ human T-cell line; human T cells) (human, UniProt P07766 23-126; P04234 22-100); experiment: cell-based or functional assay
T2 chain 1: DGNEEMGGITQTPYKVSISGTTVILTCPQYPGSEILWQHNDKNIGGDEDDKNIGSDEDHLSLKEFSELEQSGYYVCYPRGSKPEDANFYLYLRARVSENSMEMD
T2 chain 2: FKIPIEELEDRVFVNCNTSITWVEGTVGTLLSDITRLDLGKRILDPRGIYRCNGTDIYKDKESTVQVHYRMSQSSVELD

B1: BS3/20-007 (bispecific antibody, V domains shown)
VH 1: EVQLVESGGGLVQPGRSLRLSCVASGFTFNDYAMHWVRQAPGKGLEWVSVISWNSDSIGYADSVKGRFTISRDNAKNSLYLQMHSLRAEDTALYYCAKDNHYGSGSYYYYQYGMDVWGQGTTVTVSS
VH 2: DVQLVQSGAEVKKPGASVKVSCKASGYTFTRYTMHWVRQAPGQGLEWIGYINPSRGYTNYADSVKGRFTITTDKSTSTAYMELSSLRSEDTATYYCARYYDDHYCLDYWGQGTTVTVSS
VL: DIVLTQSPATLSLSPGERATLSCRASQSVSYMNWYQQKPGKAPKRWIYDTSKVASGVPARFSGSGSGTDYSLTINSLEAEDAATYYCQQWSSNPLTFGGGTKVEIK
CDC EC50, Raji [1]: 2.62 nM
CDC EC50, Raji SCID1 [1]: 101 nM
CDC EC50, Raji SCID2 [1]: 8.83 nM
CDC EC50, Raji SCID3 [1]: 37.7 nM
CDC EC50, Raji SCID4 [1]: 140 nM
T-Cell Mediated Cytotoxicity EC50, Raji [1]: 0.00166 nM
T-Cell Mediated Cytotoxicity EC50, Raji SCID1 [1]: 0.00111 nM
T-Cell Mediated Cytotoxicity EC50, Raji SCID2 [1]: 0.000652 nM
T-Cell Mediated Cytotoxicity EC50, Raji SCID3 [1]: 0.000293 nM
T-Cell Mediated Cytotoxicity EC50, Raji SCID4 [1]: 0.00153 nM

B2: H1H5772S (antibody, human IgG1, V domains shown)
VH: QVQLVESGGGLVQPGRSLRLSCAASGFSFDDYAMHWVRQAPGQGLEWVSGISWNGGSRDYADSVKGRFTISRDNARNSLFLQMNSLFTEDTALYYCAKDKSGYGSYFYGMDVWGQGTTVTVSS
VL: EIVLTQSPGILSLSPGDRATLSCRASQSIRNIYLAWYQQKPGQAPRLLIHGASTRATGIPDRFSGSGSGTDFTLTISRLEPEDFAVYYCQQRVSSPYTFGQGTKLEIK
U937 Cytotoxicity Human T-cells [M] (EC50) [2]: 6.89e-13 M

B3: H1H5780P (antibody, human IgG1, V domains shown)
VH: EVQLVESGGGLVQPGRSLRLSCAASGFTFDDYAMHWVRQAPGKGLEWVSGISWNGGSKDYADSVKGRFTISRDNTRNSLSLQMNSLRIEDTALYYCAKDKSGYGSFYYGLDVWGQGTTVTVSS
VL: B2 VL with I10T, N31S
U937 Cytotoxicity Human T-cells [M] (EC50) [2]: 4.03e-12 M

B4: H1H5778P (antibody, human IgG1, V domains shown)
VH: EVQLVESGGGLVQPGRSLRLSCVASGFTFADFTMHWVRQAPGKGLEWVSGISWNSNSIDYADSVKGRFTISRDNAKKSLFLQMSSLRAEDTALYYCVKDRSGYSRFYYGMDVWGQGTTVTVSS
VL: EIVMTQSPATLSVSPGERAILSCRASQNINSNLAWYQQKPGQAPRLLIYGASTRATGVPARFSGSGSGTEFTLTIRSLQSEDFAVYYCQQYYNWPITFGHGTRLEIK
U937 Cytotoxicity Human T-cells [M] (EC50) [2]: 3.41e-13 M

B5: H1H5781P (antibody, human IgG1, V domains shown)
VH: EVQLVESGGGLVQPGRSLRLSCAASGFTFDDFTMHWVRQAPGKGLEWVSDISWNSGSIDYADSVKGRFTISRDNARNSLFLQMSSLRTEDTASYYCIKDKSGYGSYNYGLDVWGQGTTVTVSS
VL: B2 VL with I10T, I29V, R30S, N31S, V86L, Q90H
U937 Cytotoxicity Human T-cells [M] (EC50) [2]: 1.83e-12 M

B6: H1H5782P (antibody, human IgG1, V domains shown)
VH: B3 VH with G55S, S80F, I88T, L110M
VL: not shown
U937 Cytotoxicity Human T-cells [M] (EC50) [2]: 5.18e-12 M

B7: H1H5786B (antibody, human IgG1, V domains shown)
VH: QVQLVESGAEVKKPGASVKVSCKTSGYTFTGYYMHWIRQAPGQGLEWMGWINPKSGGTNYAQKFQGRVTMTRDTSISTAYMELSRLRSDDMAVYYCARMGDGAVFDFWGQGTLVTVSS
VL: AIQMTQSPSSLSASVGDRVTITCRASQRISSFLNWYQQKPGKAPKLLIYTASNLQNGVPSRFSGSGSGTDFTLTISSLQPEDFATYYCQQSYRTPLTFGGGTKVEIKR
U937 Cytotoxicity Human T-cells [M] (EC50) [2]: 6.1e-11 M

B8: H1H5791B (antibody, human IgG1, V domains shown)
VH: B7 VH with F29L, T30S, I37M, G57V, G66D, T69A, M91T, G109A
VL: B7 VL with A1D, M4L, V104L
U937 Cytotoxicity Human T-cells [M] (EC50) [2]: 8.01e-11 M

B9: H1H5790B (antibody, human IgG1, V domains shown)
VH: EVQLVESGGGVVQPGRSLRLSCAASGFTFSYYGMHWVRQAPGKGLEWVAVISFDGKNKYYADSVMGRFTISRDNSKNTLYLQMNSLRAEDSAVFFCARSYDILTGYGAGYSYHYGMDVWGQGTTVTVSS
VL: B7 VL
U937 Cytotoxicity Human T-cells [M] (EC50) [2]: 8.71e-11 M

B10: H1H5792B (antibody, human IgG1, V domains shown)
VH: QVQLVESGGGVVQPGRSLRLSCAASGFTFSSYGMHWVRQAPGKGLEWVSTISFDGSNKYYADSVKGRFTISRDNSKNTLYLQMNSLRPEDTAVYYCAKGGGTSGSYFYYGMDVWGQGTTVTVSS
VL: B7 VL with V104L
U937 Cytotoxicity Human T-cells [M] (EC50) [2]: 1.4e-10 M

B11: H1H5793B (antibody, human IgG1, V domains shown)
VH: QVQLVQSGTEVKKPGASMKVSCKASGYTFTGYYIHWVRQAPGQGLEWMGWINPNSDVTKYAQKFQGRVTLTRDTSISAAYIDLSRLRSDDTAIYYCARMGDGAVFDYWGQGTLVTVSS
VL: DIQLTQSPSSLSASVGDRVTITCRASQRISSYLNWYQQKPGKAPKVLISVASSLQSGVPSRFSGSGFGTDFTLTISSLQPEDSASYYCQQSYNTPLTFGGGTKLEIKR
U937 Cytotoxicity Human T-cells [M] (EC50) [2]: 8.85e-11 M

B12: H1H5797B (antibody, human IgG1, V domains shown)
VH: B11 VH with M18V, I34M, K59N, A78T
VL: B11 VL with L4M, F67S, S83F, L104V
U937 Cytotoxicity Human T-cells [M] (EC50) [2]: 5.76e-10 M

B13: H1H5795B (antibody, human IgG1, V domains shown)
VH: B7 VH with Q1E, T28S, T30I, M34I, I37M, G57V, K63R, R87K, M91T, Y95F
VL: B7 VL with A1D, M4L, A43V, S65T, E105D
U937 Cytotoxicity Human T-cells [M] (EC50) [2]: 6.74e-11 M

B14: H1H5798B (antibody, human IgG1, V domains shown)
VH: QVQLVQSGGGLVKPGGSLRLSCAASGFTFSSYDMSWVRQAPGKGLEWVSYISSSGNTIHYADSVKGRFTISRDNSKNSLYLQMNSLRAEDTAVYYCAKAGPATVTRRYYYYYGLDVWGQGTTVTVSS
VL: B7 VL with A1D, Q3V, G16R, F32Y, Y36F, L46V, N53S
U937 Cytotoxicity Human T-cells [M] (EC50) [2]: 1.81e-10 M

B15: H1H5801B (antibody, human IgG1, V domains shown)
VH: QVQLVQSGGGVVQPGGSLRLSCAASGFTFDDYAMHWVRQAPGKGLEWVSLISGDGGSTYYADSVKGRFTISRDNSKNSLYLQMNSLRTEDTALYYCAKDDSSSSWYYYYYGMDVWGRGTTVTVSS
VL: B11 VL with L4M, F67S, S83F, L104V
U937 Cytotoxicity Human T-cells [M] (EC50) [2]: 9.23e-11 M
